The values below come from patent publication US20250000946A1 (WUXI BIOLOGICS IRELAND, published 2025).

The target of experiment [1] is T1, W3XX115-T2U0.E44-6.uIgG4V322 (human, UniProt P60568 21-149).
T1 construct: IL-2 del STLT; E44 format, IgG4 FALA; IL-2 part tied by the design 'Del STLT'; not shown: IgG4 hinge-Fc with FALA (uIgG4V322), no linker
As to the kind of experiment: SPR Biacore 8K; variant captured via anti-human Fc, IL-2Rα ECD-His injected; steady state. The method, then: IL-2 variants binding affinity to IL-2 receptor were detected by SPR using Biacore 8K. For IL-2Rα binding assay, each variant was captured on anti-human Fc immobilized CM5 sensor chip (cytiva). W3XX115-hPro1.ECD.His at different concentrations were injected over the sensor chip at a flow rate of 30 uL/min for an association phase of 60 s, followed by 90 s dissociation. The chip was then regenerated by 10 mM Glycine-HCl pH1.5 after each binding cycle. For IL-2Rγ binding assay, IL-2 variants were mixed with W369-hPro2.ECD.His as 1:1 before assay, were detected by SPR using Biacore 8K. W3XX115-hPro1.ECD.His was captured on anti-His immobilized CM5 sensor chip (cytiva). The mixture were injected over the sensor chip as described above. The sensorgrams of blank surface and buffer channel were subtracted from the test sensorgrams. The experimental data was fitted by steady state affinity model. Molecular weight of W3XX115-hPro1.ECD.His or W369-hPro1.ECD.His was used to calculate the molar concentration of analyte.
For T3U0.E44-1 and T2U0.E44-33, no binding to IL-2Rα was detected.
On the technique in general: Surface plasmon resonance follows binding to a sensor surface in real time, without labels.

Experiment [2] deals with T1, W3XX115-T2U0.E44-6.uIgG4V322. In words: SPR (Biacore 8K): variant pre-mixed 1:1 with human IL-2Rβ ECD (W369-hPro2.ECD.His), injected over immobilised human IL-2Rγc [panel 2 of the upper row].
For experiment [3] the target is unchanged. As to the kind of experiment: SPR Biacore 8K; set-up for IL-2Rβ not described.
For experiment [4], the target named is T2, Human IL-2Rα/β/γ complex (high affinity IL-2 receptor) (human, UniProt P01589 22-272; P14784 27-551; P31785 23-369).
T2 construct: whole, on cells
T2 sequence (looked up) 1: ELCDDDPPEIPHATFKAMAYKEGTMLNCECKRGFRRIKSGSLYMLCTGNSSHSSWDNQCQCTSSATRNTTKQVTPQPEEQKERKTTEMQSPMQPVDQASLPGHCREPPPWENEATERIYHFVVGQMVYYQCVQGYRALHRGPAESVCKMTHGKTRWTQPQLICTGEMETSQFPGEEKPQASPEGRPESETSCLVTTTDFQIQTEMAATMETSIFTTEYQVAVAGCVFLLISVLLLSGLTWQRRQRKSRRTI
T2 sequence (looked up) 2: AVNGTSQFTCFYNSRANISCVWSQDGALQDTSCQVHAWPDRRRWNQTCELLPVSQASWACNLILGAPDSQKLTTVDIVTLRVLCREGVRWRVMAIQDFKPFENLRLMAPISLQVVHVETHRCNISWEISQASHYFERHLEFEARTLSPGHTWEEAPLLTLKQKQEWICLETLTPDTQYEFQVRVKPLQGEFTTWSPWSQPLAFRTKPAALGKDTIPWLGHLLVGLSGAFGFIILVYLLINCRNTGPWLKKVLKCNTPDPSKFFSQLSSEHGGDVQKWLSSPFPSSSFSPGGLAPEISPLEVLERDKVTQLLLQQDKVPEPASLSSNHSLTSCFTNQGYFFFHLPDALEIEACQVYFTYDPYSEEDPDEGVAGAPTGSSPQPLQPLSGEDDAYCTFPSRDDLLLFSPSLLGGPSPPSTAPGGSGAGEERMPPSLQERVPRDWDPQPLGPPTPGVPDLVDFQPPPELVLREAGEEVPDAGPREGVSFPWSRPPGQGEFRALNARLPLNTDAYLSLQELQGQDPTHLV
T2 sequence (looked up) 3: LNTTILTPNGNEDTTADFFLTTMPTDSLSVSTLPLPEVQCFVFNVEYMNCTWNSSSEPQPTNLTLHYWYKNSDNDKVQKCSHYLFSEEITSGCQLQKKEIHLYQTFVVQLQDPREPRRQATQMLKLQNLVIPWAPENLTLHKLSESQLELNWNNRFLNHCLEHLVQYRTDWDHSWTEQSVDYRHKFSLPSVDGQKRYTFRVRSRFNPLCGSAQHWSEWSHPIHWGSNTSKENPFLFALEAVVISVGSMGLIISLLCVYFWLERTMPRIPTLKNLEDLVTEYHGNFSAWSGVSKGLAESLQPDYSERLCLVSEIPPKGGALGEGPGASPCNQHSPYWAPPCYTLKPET
As to the kind of experiment: FACS, NK92 cells. Summed up: (§1)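 HH (IL-2Rβ/γ), MJ20 and NK92 (IL-2Rα/β/γ) cells incubated with IL-2/Fc fusion proteins at indicated concentrations, 30 min at 4° C to avoid internalization. Bound protein detected with PE-anti-human Fc, 30 min at 4° C; median fluorescence intensity read by FACS.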
In general terms: A flow cytometer gives signals particle by particle.

The target in experiment [5] is T3, Human IL-2Rβ/γ (intermediate affinity IL-2 receptor) (human, UniProt P14784 27-551; P31785 23-369).
T3 construct: whole, on cells; also called IL-2Rβ/γc; IL-2Rβ (CD122) and γ (CD132)
T3 sequence (looked up) 1: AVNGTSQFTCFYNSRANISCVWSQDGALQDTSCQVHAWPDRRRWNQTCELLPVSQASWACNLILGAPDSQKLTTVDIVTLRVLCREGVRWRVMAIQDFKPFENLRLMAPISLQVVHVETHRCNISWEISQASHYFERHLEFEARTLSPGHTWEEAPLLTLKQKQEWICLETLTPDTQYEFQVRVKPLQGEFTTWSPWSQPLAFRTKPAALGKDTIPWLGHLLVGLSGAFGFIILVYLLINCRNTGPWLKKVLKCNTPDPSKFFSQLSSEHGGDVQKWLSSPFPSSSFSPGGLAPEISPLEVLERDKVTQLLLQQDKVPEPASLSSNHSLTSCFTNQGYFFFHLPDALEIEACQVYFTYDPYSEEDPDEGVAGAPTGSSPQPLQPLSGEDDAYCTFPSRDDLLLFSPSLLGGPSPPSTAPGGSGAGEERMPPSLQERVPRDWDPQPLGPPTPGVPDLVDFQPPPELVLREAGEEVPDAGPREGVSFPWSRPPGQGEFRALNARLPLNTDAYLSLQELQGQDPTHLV
T3 sequence (looked up) 2: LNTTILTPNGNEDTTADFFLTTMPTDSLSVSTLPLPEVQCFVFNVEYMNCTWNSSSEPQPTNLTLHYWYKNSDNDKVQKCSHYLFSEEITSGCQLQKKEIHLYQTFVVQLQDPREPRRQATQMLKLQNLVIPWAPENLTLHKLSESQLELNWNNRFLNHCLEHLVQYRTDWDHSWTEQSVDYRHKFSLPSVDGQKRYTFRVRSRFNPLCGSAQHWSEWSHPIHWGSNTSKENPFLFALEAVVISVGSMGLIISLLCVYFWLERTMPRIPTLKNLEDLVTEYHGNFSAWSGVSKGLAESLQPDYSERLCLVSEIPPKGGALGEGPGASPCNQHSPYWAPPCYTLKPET
As to the kind of experiment: FACS, HH cells. Put shortly:
as §1

For experiment [6], the target named is T3, Human IL-2Rβ/γ (intermediate affinity …). In words: FACS, HH cells; EC50 fold vs T2U0.E44-1. Summed up: as §1
Experiment [7] has the same target. As to the kind of experiment: FACS, HH cells. The method, then: (§2) Human cutaneous T cell lymphoma HH cells, malignant non-Hodgkin's lymphoma NK92 cells and cutaneous T cell lymphoma MJ20 cells were used for binding assay. They both constitutively express IL-2Rβ (CD122) and […] (CD132), and NK92 and MJ20 also expresses IL-2Rα (CD25). HH, NK92 and MJ20 cells were cultured following ATCC guidance, then transferred to a 96-plate for binding analysis. Cells were incubated with IL-2/Fc fusion proteins at the indicated concentrations for 30 min at 4° C. to avoid internalization. Binding was detected by 2nd antibody of PE-anti-human Fc at 4° C. for another 30 min. The median fluorescence intensity (MFI) on HH and NK92 cells was measured using FACS.
The source holds these as a separate data set.

In experiment [8] the target is T2, Human IL-2Rα/β/γ complex (high affinity …). As to the kind of experiment: FACS, NK92 cells; EC50 fold vs T2U0.E44-1. Put shortly:
as §1

Experiment [9] has as its target T3, Human IL-2Rβ/γ (intermediate affinity …). In words: cell-based or functional assay.
The target of experiment [10] is T2, Human IL-2Rα/β/γ complex (high affinity …). As to the kind of experiment: cell-based or functional assay.
The target of experiment [11] is T3, Human IL-2Rβ/γ (intermediate affinity …). In words: cell-based or functional assay. The source holds these as a separate data set.
Experiment [12] addresses T2, Human IL-2Rα/β/γ complex (high affinity …). As to the kind of experiment: cell-based or functional assay. This is another data set of the same source.
For experiment [13], the target named is T3, Human IL-2Rβ/γ (intermediate affinity …). In words: FACS, HH cells; EC50 fold vs T2U0.E44-1. On the procedure: as §2
The source holds these as a separate data set.

Like-named read-outs stand apart in the source and are kept apart here.

B1: W3XX115-hPro1.ECD.His, IL2Rα ECD (receptor)
chain: ELCDDDPPEIPHATFKAMAYKEGTMLNCECKRGFRRIKSGSLYMLCTGNSSHSSWDNQCQCTSSATRNTTKQVTPQPEEQKERKTTEMQSPMQPVDQASLPGHCREPPPWENEATERIYHFVVGQMVYYQCVQGYRALHRGPAESVCKMTHGKTRWTQPQLICTGEMETSQFPGEEKPQASPEGRPESETSCHHHHHH
notes: Entry includes the C-terminal 6xHis tag; also called CD25
On to B1, for which binding in experiment [1] was characterised by a dissociation constant (Kd) of 98.2 nM.

B2: W369-hPro1.ECD.His, IL-2Rγ ECD (receptor)
chain: LNTTILTPNGNEDTTADFFLTTMPTDSLSVSTLPLPEVQCFVFNVEYMNCTWNSSSEPQPTNLTLHYWYKNSDNDKVQKCSHYLFSEEITSGCQLQKKEIHLYQTFVVQLQDPREPRRQATQMLKLQNLVIPWAPENLTLHKLSESQLELNWNNRFLNHCLEHLVQYRTDWDHSWTEQSVDYRHKFSLPSVDGQKRYTFRVRSRFNPLCGSAQHWSEWSHPIHWGSNTSKENLEGGGGSGGGGHHHHHH
notes: Entry includes linker and C-terminal 6xHis tag; also called IL-2Rγc; CD132
B2: the binding result in experiment [2] was “binds”.

B3: W369-hPro2.ECD.His, IL2Rβ ECD (receptor)
chain: AVNGTSQFTCFYNSRANISCVWSQDGALQDTSCQVHAWPDRRRWNQTCELLPVSQASWACNLILGAPDSQKLTTVDIVTLRVLCREGVRWRVMAIQDFKPFENLRLMAPISLQVVHVETHRCNISWEISQASHYFERHLEFEARTLSPGHTWEEAPLLTLKQKQEWICLETLTPDTQYEFQVRVKPLQGEFTTWSPWSQPLAFRTKPAALGKDLEGGGGSGGGGHHHHHH
notes: Entry includes linker and C-terminal 6xHis tag; also called CD122
For B3, the affinity in experiment [3], expressed as Kd, was 1010 nM.

B4: W3XX115-T3U0.E44-1.uIgG4V1 (Fc fusion)
chain: APTSSSTKKTQLQLEHLLLDLQMILNGINNYKNPKLTRMLTAKFAMPKKATELKHLQCLEEELKPLEEVLNGAQSKNFHLRPRDLISNINVIVLELKGSETTFMCEYADETATIVEFLNRWITFCQSIISTLTESKYGPPCPPCPAPEFLGGPSVFLFPPKPKDTLMISRTPEVTCVVVDVSQEDPEVQFNWYVDGVEVHNAKTKPREEQFNSTYRVVSVLTVLHQDWLNGKEYKCKVSNKGLPSSIEKTISKAKGQPREPQVYTLPPCQEEMTKNQVSLWCLVKGFYPSDIAVEWESNGQPENNYKTTPPVLDSDGSFFLYSRLTVDKSRWQEGNVFSCSVMHEALHNHYTQKSLSLSLG
heavy: EIQLQQSGPELVKPGASVKVSCKASGYSFTDYNMYWVKQSHGESLEWIGYIDPYNGGTRYNQKFKGKATLTVDKSSSTAFMHLNSLTSEDSAVYYCARNGHWDGAWFAYWGQGTLVTVSAASTKGPSVFPLAPCSRSTSESTAALGCLVKDYFPEPVTVSWNSGALTSGVHTFPAVLQSSGLYSLSSVVTVPSSSLGTKTYTCNVDHKPSNTKVDKRVESKYGPPCPPCPAPEFLGGPSVFLFPPKPKDTLMISRTPEVTCVVVDVSQEDPEVQFNWYVDGVEVHNAKTKPREEQFNSTYRVVSVLTVLHQDWLNGKEYKCKVSNKGLPSSIEKTISKAKGQPREPQVCTLPPSQEEMTKNQVSLSCAVKGFYPSDIAVEWESNGQPENNYKTTPPVLDSDGSFFLVSRLTVDKSRWQEGNVFSCSVMHEALHNHYTQKSLSLSLG
light: DIQMNQSPSSLSASLGDTITITCHASQNINVWLSWYQQKPGNIPKLLIYKASNLHTGVPSRFSGSRSGTGFTLTISSLQPEDIATYYCHQGQSYPFTFGSGTKLEIKRTVAAPSVFIFPPSDEQLKSGTASVVCLLNNFYPREAKVQWKVDNALQSGNSQESVTEQDSKDSTYSLSSTLTLSKADYEKHKVYACEVTHQGLSSPVTKSFNRGEC
notes: E44 format, IgG4
As for B4, the EC50 (as a rule, the concentration needed to bring the measured effect to its halfway point) in [4] came out at 145 nM. Further, the response in experiment [5] was half-maximal at 72.9 nM (EC50). Besides, the Affinity reduction in experiment [6] is 1 fold. In experiment [7], this molecule showed an EC50 of 24.5 nM. Further, the Affinity reduction in experiment [8] turned out to be 20.7 fold. For the same molecule, in experiment [9], the “Human CD8+ T Potency EC50 (STAT5 phosphorylation)” value is 7.14 nM and the “Human CD8+ T Potency reduction” value was 0.69 fold. Further, in experiment [10], the “Human Treg Potency EC50 (STAT5 phosphorylation)” value turned out to be 3.52 nM and the “Human Treg Potency reduction” value was 296 fold. In addition, in experiment [11], the “Potency in human CD8+ T EC50” value was 7.53 nM and the “Potency reduction (CD8+ T)” value came to 0.74 fold. Also, in experiment [12], the “Potency in human Treg EC50” value is 2.48 nM and the “Potency reduction (Treg)” value stood at 652 fold. This molecule gave an Affinity reduction in experiment [13] of 1 fold.
